Laboratory results published in patent US20250326861A1.
Several values for one entry are separate records, joined by “and”; a condition that tells them apart may be missing. Identical values can stand only once.

What was measured:
Conditions in all cases: remark: other sources report otherwise
[1] = target: T1, Human kallikrein (analyte in the Biacore assay) (human), P03952; test: SPR, Biacore T200, 25 C, HBS-EP+; antibody captured through Fc, human kallikrein as analyte; full length antibody
[2] = target: T1, Human kallikrein (analyte in the …); test: SPR, Biacore T200, 25 C, HBS-EP+; antibody captured on the chip through Fc, human kallikrein (activated, purified from human plasma) as analyte
[3] = target: T1, Human kallikrein (analyte in the …); test: as above; remark: listed apart in the source

T1 sequence (P03952 20-638 limits assumed): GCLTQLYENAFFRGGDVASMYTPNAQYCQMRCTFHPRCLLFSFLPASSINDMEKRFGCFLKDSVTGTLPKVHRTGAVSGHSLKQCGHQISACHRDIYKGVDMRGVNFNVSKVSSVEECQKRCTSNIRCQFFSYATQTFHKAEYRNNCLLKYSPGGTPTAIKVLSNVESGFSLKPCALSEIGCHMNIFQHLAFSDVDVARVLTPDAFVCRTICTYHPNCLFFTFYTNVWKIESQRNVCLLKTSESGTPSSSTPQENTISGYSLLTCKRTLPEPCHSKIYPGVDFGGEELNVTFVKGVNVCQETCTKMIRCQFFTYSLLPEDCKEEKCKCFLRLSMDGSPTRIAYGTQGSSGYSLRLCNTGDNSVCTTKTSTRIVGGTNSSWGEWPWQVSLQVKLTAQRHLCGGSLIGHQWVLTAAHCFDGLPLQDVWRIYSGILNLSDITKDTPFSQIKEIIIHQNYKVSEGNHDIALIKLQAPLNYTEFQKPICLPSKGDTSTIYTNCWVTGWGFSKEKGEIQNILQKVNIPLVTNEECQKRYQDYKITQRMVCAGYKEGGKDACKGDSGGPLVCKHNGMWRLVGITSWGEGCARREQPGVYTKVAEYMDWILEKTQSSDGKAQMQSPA

B1: Lanadelumab (full length anti-pKal antibody) (antibody, IgG1, V domains shown)
VH: EVQLLESGGGLVQPGGSLRLSCAASGFTFSHYIMMWVRQAPGKGLEWVSGIYSSGGITVYADSVKGRFTISRDNSKNTLYLQMNSLRAEDTAVYYCAYRRIGVPRRDEFDIWGQGTMVTVSS
VL: DIQMTQSPSTLSASVGDRVTITCRASQSISSWLAWYQQKPGKAPKLLIYKASTLESGVPSRFSGSGSGTEFTLTISSLQPDDFATYYCQQYNTYWTFGQGTKVEIK
Kd [1]: 1.74 nM
koff [2]: 0.000347 s⁻¹
kon [2]: 199000 M⁻¹ s⁻¹
Kd [3]: 6.73 nM and 5.76 nM and 5.54 nM
koff [3]: 0.000315 s⁻¹ and 0.000297 s⁻¹ and 0.000291 s⁻¹
kon [3]: 51500 M⁻¹ s⁻¹ and 52600 M⁻¹ s⁻¹ and 46700 M⁻¹ s⁻¹
